Changes are numbered by the printed parent chain.
T1: human Ang2 protein (R&D Systems, 623-AN-01M/CF; 623-AN/CF) (human, UniProt O15123 19-496)
T1 chain: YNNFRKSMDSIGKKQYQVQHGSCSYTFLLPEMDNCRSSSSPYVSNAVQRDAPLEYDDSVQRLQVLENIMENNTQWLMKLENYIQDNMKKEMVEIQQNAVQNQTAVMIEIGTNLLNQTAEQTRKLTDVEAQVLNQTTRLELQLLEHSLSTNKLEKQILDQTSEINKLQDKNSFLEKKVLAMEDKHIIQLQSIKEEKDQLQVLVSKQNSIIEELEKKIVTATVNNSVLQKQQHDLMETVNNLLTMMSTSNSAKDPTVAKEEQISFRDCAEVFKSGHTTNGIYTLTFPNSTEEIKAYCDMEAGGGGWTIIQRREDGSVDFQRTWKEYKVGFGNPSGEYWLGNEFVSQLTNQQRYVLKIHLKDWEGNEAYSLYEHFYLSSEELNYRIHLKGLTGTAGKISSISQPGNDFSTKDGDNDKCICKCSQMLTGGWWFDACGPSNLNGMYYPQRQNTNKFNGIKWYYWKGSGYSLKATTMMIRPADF

T2: membrane-anchored human Ang2 protein expressed on CHO-K1 cells (human, UniProt O15123 19-496)
T2 chain: T1 chain

T3: membrane-anchored cyno Ang2 protein expressed on CHO-K1 cells (cyno, UniProt A0A2K5VNX6 19-496)
T3 chain: T1 chain with E258G, I279V, F284L, I291V, G410A, A468G, D477G

T4: human Ang2 protein (R&D Systems, 623-AN-01M/CF; 623-AN/CF) (human, UniProt O15123 19-496)
T4 construct: Bought recombinant protein; also called Ang2 proteins; angiopoietin-2
T4 sequence (looked up): T1 chain

T5: mouse Ang2 protein (R&D Systems, 7186-AN-025/CF) (mouse, UniProt O35608 19-496, limits assumed)
T5 construct: Bought recombinant protein
T5 sequence (looked up): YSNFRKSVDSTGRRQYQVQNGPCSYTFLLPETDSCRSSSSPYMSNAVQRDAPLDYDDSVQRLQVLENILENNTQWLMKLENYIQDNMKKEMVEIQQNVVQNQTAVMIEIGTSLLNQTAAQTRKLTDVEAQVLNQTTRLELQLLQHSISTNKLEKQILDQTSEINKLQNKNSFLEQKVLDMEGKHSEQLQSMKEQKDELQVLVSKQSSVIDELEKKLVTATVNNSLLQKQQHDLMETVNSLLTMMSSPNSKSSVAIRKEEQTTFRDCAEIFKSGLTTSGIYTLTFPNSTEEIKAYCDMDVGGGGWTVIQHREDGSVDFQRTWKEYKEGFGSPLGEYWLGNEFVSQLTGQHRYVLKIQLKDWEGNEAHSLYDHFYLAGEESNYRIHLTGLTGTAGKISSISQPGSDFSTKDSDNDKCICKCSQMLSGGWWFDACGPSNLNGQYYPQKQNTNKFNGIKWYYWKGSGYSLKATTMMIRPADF

B1: 45C5A1 (antibody, V domains shown)
VH: EVKLVESGGGLVQPGGSLKLSCAASGFTFSNYTMSWVRQTPEKRLELVAEISNSDGSAYYPDTVKGRFTISRDNAKKTLYLQMSSLKSEDTAMYYCARHGGLRVYYAIDYWGQGTSVTVSS
VL: DIQMTQSPASQSASLGESVTITCLASQTIGPWLAWYQQKPGKSPQLLIYAATSLADGVPSRFSGSGSGTKFSFKISSLQAEDFVSYYCQQLYSDPLYTFGGGTKLEMK
B2: 33A3E2 (antibody, V domains shown)
VH: EVKLVESGGGLVQPGGSRKLSCAASGFTFSDYGMVWVRQAPGKGLEWVAYIGSGRSTIYYADTVKGRFTISRDNPKNTLFLQMSSLRSEDTAMYYCAREDNGYSYAMDYWGQGTSVTVSS
VL: DIQMTQSPASQSASLGESVTITCLTSQTIGTWLAWYQQKPGKSPQLLIYAATSLADGVPSRFSGSGSGTKFSFKISSLQAEDFVSYYCQQLYSIPLTFGAGTKLELK
B3: 39C1C4 (antibody, V domains shown)
VH: B2 VH with S56N, A97V
VL: B2 VL with T25A
B4: 49B8G4 (antibody, V domains shown)
VH: B2 VH with V48I, S56N
VL: B2 VL with I21V, T25A, V84G, A100V
B5: 7F10B2 (antibody, V domains shown)
VH: EVQLQQSGPELVKPGSSVKISCKTSGYTFTDYNMDWVKQSHGKSLEWIGTINPKNGETSDNQKFKAKATLTVDKSSSTAYMELRSLTSEDSAVYYCAKNVDYSNYLFFPMDYWGQGTSVTVSS
VL: SIVMTQTPKFLLVSAGDRVTITCKASQSVSNDVAWYQQKPGQSPKLLIYYASNRFTGVPDRFTGSGYGTDFTFTITTVQAEDLAVYFCQQDYSSRTFGGGTKLEIK
B6: 42A2A6 (antibody, V domains shown)
VH: DVQLQESGPGLVKPSQSLSLTCTVTGYSITSDYAWNWIRQFPGNKLEWMGFINYSGTTSYNPSLKSRISLTRDTSKNQFFLQLNSVTTEDTATYYCARWGYSDFLYYFDYWGQGTTLTVSS
VL: QIVLSQSPAILSASPGEKVTMTCRASSSVSYIHWYQQKPGYSPKPWIYATSNLASGVPARFSGGGSGTSYSLTISRVEAEDAATYYCQQWSNNPWTFGGGTKLEIK
notes: Hybridoma antibody purified with Protein-A beads
B7: 46F3H4 (antibody, V domains shown)
VH: EVQLHQSGPELVKPGASVKMSCKASGYTFTNYYIHWVKQSHGKSIEWIGYIYPNNGDTTYNQKFKGKATLTVDKSSSIAYMELRSLTSEDSAVYYCAVVSYSNYVAGAMDYWGQGTSVTVSS
VL: SIVMTQTPKFLLVSAGDRVTITCKASQSVSNDVAWYQQKPGQSPKLLIYFASNRYTGVPDRFTGSGYGTDFTFTISTVQAEDLAVYFCQQDYSSPYTFGGGTKLEIK
notes: as for B6
B8: 31E2D4 (antibody, V domains shown)
VH: QIQLVQSGPELKKPGETVKISCKASGYTLTNYGMNWVKQAPGKGLKWMGWINSYSGVPTYADDFKGRFAFSLETSASTAYLQINNLKNEDTATYFCARGENNYYGGSYDWGQGTTLTVSS
VL: B7 VL with F50Y, Y96L, G100A, I106L, K107R
B9: 42C3A4 (antibody, V domains shown)
VH: EVKLEESGGGLVQPGGSMKLSCVASGITFSNYWMDWVRQSPEKGLEWVAEIRLKSNNYATHYAESVKGRFTISRDDSKNSVYLQMNNLRAEDTGIYYCTRGAPLFGGYYKGVYFDYWGQGTTLTVSS
VL: B7 VL with I2F, F10S, V13A, K24Q, D32E, F50Y, N53S, T63A, S93N
notes: as for B6
B10: 50H8E5C5 (antibody, V domains shown)
VH: B7 VH with I34M, T59N, I78T, Y95S
VL: B7 VL
B11: 17F3E8 (antibody, V domains shown)
VH: B7 VH with S44T, Y52H, T59S, G66D, I78T, E82D, A97S, N103H, M109L, Y111N
VL: B7 VL
B12: 15H10D12 (antibody, V domains shown)
VH: DVQLQESGPGLVKPSQSLSLTCTVTGYSITSDYAWNWIRQFPGNRLEWMGYINYSGSTDYNPSLKSRISITRDTSKNQFFLQLNSVTTEDTATYYCARGVRGDMDYWGQGTSVTVSS
VL: B7 VL with F50Y, E81D, Y96F, G100S
B13: 25C5D6F3 (antibody, V domains shown)
VH: EVNLVESGGGLVQPGGSLRLSCATSGFTFSDFYMEWVRQPPGKRLEWIAASRNKANDYTTEYSASVKGRFIVSRDTSQSILYLQMNALRAEDTAIYYCTRGSYTNYTWFAYWGQGTLVTVSA
VL: B7 VL
B14: 27H11B5 (antibody, V domains shown)
VH: DVQLQESGPGLVKPSQSLSLTCTVTGYSITSDYAWNWIRQFPGNKLEWMGYISYSGSTSYNPSLKSRISITRDTSKNQFFLQLNSVTTEDTATYYCARCVYGNYVGAMDYWGQGTSVTVSS
VL: B7 VL with S30T, F50Y, A80T, Y96L, G100A, I106L
B15: 49E4C2 (antibody, V domains shown)
VH: B9 VH with N79S, G106D
VL: B7 VL with I2T, F10S, V13A, T20A, D32E, Q42L, F50Y, S93N
notes: as for B6
B16: 15B4C6 (antibody, V domains shown)
VH: QVQLKESGPGLVAPSQSLSITCTVSGFSLNGYGVNWVRQPPGKGLEWLGLIWNNGSTDYNSALKSRLTISKDNSKSLVFLKMNSLQTDDTARYYCARDPLYLLRGAMDYWGQGTSVTVSS
VL: DIVLTQSPASLTVSLGQRATISCRASKSVSSSGYNFIYWYQQKPGQPPKLLIYLASNLESGVPARFSGSGSGTDFTLNIHPVEEEDAATYYCQHSRDLPLTFGAGTKLELK

How the values were obtained:
[1] = target: T1, human Ang2 protein (R&D Systems, …); experiment: ELISA
[2] = target: T2, membrane-anchored human Ang2 protein …; experiment: FACS
[3] = target: T3, membrane-anchored cyno Ang2 protein …; experiment: FACS
[4] = target: T4, human Ang2 protein (R&D Systems, …); experiment: indirect ELISA, human Ang2 coated at 0.5 µg/ml
Protocol: (§1) The antibodies were tested for their binding activities to Ang2 in an indirect ELISA. Briefly, 100 μl of 0.5 μg/ml human or mouse Ang2 proteins (R&D Systems; 623-AN-01M/CF for human Ang2, 7186-AN-025/CF for mouse Ang2) were pre-coated onto ELISA plates overnight at 4° C. On the next day, the plates were incubated with […] diluted primary antibodies, with initial concentration at 1 μg/ml. The plates were added with HRP-conjugated goat anti-mouse IgG (H+L) and then TMB for chromogenic reaction. The antibody-antigen binding curves were generated with optical density readings at 450 nm. Raw data was plotted using GraphPad Prism v6.02 software with four parameters, and best-fit values program was used to analyze the EC₅₀.

[5] = target: T5, mouse Ang2 protein (R&D Systems, …); experiment: indirect ELISA, mouse Ang2 coated at 0.5 µg/ml
Protocol: as §1

| Binder | EC50 [1] | EC50 [2] | EC50 [3] | binding result [4] | binding result [5] |
| --- | --- | --- | --- | --- | --- |
| B1 | 7.03 ng/mL |  |  |  |  |
| B2 | 5.59 ng/mL |  |  |  |  |
| B3 | 4.47 ng/mL |  |  |  |  |
| B4 | 4.57 ng/mL |  |  |  |  |
| B5 | 4.62 ng/mL |  |  |  |  |
| B6 | 9.87 ng/mL | 7.84 nM | 3.88 nM | binds | no binding (tested: initial concentration at 1 µg/ml) |
| B7 | 42.4 ng/mL | 6.33 nM | 18.8 nM | binds | no binding (tested: initial concentration at 1 µg/ml) |
| B8 | 6.6 ng/mL |  |  |  |  |
| B9 | 11.4 ng/mL | 0.155 nM | 8.13 nM | binds |  |
| B10 | 66.2 ng/mL |  |  |  |  |
| B11 | 12.2 ng/mL |  |  |  |  |
| B12 | 9.28 ng/mL |  |  |  |  |
| B13 | 17.6 ng/mL |  |  |  |  |
| B14 | 9.97 ng/mL |  |  |  |  |
| B15 | 11 ng/mL | 0.14 nM | 29.4 nM | binds |  |
| B16 | 11.2 ng/mL |  |  |  |  |

— patent publication US20230312698A1 (NANJING GENSCRIPT BIOTECH, published 2023)
